Data reported in paper PMC5007448, “Molecular logic of the Zur-regulated zinc deprivation response in Bacillus subtilis”.

Columns and labels:
Experiment in all cases: EMSA; 0.1 uM ZnSO4; 20 mM Tris-HCl pH 6.4, 50 mM KCl, 1 mM DTT, 0.1 mg/ml BSA, 5% glycerol, 0.1 ug poly(dI-dC) in 20 ul, 0.1 uM ZnSO4; room temperature 20 min; gel at 4 C in TA pH
Conditions in all cases: protein: recombinant; tags: none stated; chain copies: 2; label: 5'-32P; blunt
Zur WT (BsZur) = Zur WT (BsZur) (Bacillus subtilis, UniProt P54479 1-145)
Zur C84S = Zur C84S (Bacillus subtilis, UniProt P54479 1-145, C84S)
Zur H124A = Zur H124A (Bacillus subtilis, UniProt P54479 1-145, H124A)

Binder	Kd (Zur WT (BsZur)) [nM]	Kd (Zur C84S) [nM]	Kd (Zur H124A) [nM]
PyciC (dsDNA) DNA 1: ACCATACAATTTAAGTCGTAACAATTACGTTTTATGATAAATGGC DNA 2: GCCATTTATCATAAAACGTAATTGTTACGACTTAAATTGTATGGT	25.4 ± 1.1	80.6 ± 3.2	129 ± 3.8
PzinT (dsDNA) DNA 1: ATGTATGTATAATAAATCGTAATGTTTTCGATTTAATAAAAAAGG DNA 2: CCTTTTTTATTAAATCGAAAACATTACGATTTATTATACATACAT	15.6 ± 3.5	75.5 ± 5.3	96 ± 1.3
PrpmEB (dsDNA) DNA 1: GTAAGGTTATAAAATAAAACGTAATTATTACGATTTATTGAAAGG DNA 2: CCTTTCAATAAATCGTAATAATTACGTTTTATTTTATAACCTTAC	14.3 ± 2.6	77.9 ± 4	101 ± 2.3
PfolEB (dsDNA) DNA 1: ACCGATCAAAATAAATAGTAATTATTACGATTTGTTAGTGAGAGG DNA 2: CCTCTCACTAACAAATCGTAATAATTACTATTTATTTTGATCGGT	21.9 ± 3.9	28.6 ± 2.5	100 ± 4
PznuA (dsDNA) DNA 1: ATTTATTCTTGCAAAACGTAATGACTTCGGTTTATTATGATATAG DNA 2: CTATATCATAATAAACCGAAGTCATTACGTTTTGCAAGAATAAAT	12.5 ± 4	73 ± 2	110 ± 3
PrpsNB (dsDNA) DNA 1: GAATGATACATTTTAAATCGTAACAATTTCGATTTAAAGGGAGGC DNA 2: GCCTCCCTTTAAATCGAAATTGTTACGATTTAAAATGTATCATTC	14.3 ± 2.5	16.5 ± 2.5	99 ± 1.6
